Test results taken from patent US7611721B1, “Adjuvant combination formulations” (priority 2000, dated 2009).
Where two headings read alike, the source gives them in different places.

How the values were obtained:
T1SP10MN(A) (−Cys) [1] = conditions: for Vaginal lavage reciprocal anti-T1SP10MN(A) (−Cys) IgA endpoint titer / Vaginal lavage reciprocal anti-T1SP10MN(A) (−Cys) IgG endpoint titer: Experiment 2, pooled, n=5 Balb/c, 15 days after secondary immunization
Procedure: Animals were bled prior to initial immunization, and at indicated time points. Serum was analyzed from individual mice, or as pools from mice within groups. Vaginal lavage was performed on euthanized mice to assess antibody levels. This was accomplished by instillation of 75:1 RPMI-10 into the vaginal vault of female mice using a 200:1 pipette. The vault was washed by repeated delivery and removal of fluid, which was then added to 10:1 of FBS. Vaginal lavage were analyzed as pools.
For analysis of HIV peptide-specific antibody and subclass distribution, peptide was suspended in either carbonate buffer (15 mM Na2CO3, 35 mM NaHCO3, pH 9.6), or PBS, at a concentration of 1 μg/ml and plated to 96 well microtiter plates (Nunc) in a volume of 100:1. After overnight incubation at 37° C., plates were washed, and blocked (0.1% gelatin/PBS) at room temperature for 2-4 hours. ELISA plates were washed with wash buffer (PBS, 0.1% Tween™20) before addition of serially diluted serum (PBS, 0.1% gelatin, 0.05% Tween™20, 0.02% sodium azide). After a four hour incubation, wells were washed and appropriate dilutions of biotinylated anti-isotype/subclass antibodies were added for incubation at 4° C. overnight. Wells were washed and incubated with strepavidin-conjugated horseradish peroxidase. After incubation, wells were washed, and developed with ABTS. Wells were read at 405 nm. Titers were standardized using control sera.
Vaginal IgG and IgA anti-peptide antibody titers were measured from lavage obtained 2 weeks after final immunization. Groups of 5 Balb/c female mice were immunized with 25 μg T1SP10MN(A) (−Cys) and the indicated adjuvant formulations on days 0, 28, and 42. Vaginal antibody titers were determined from pool d lavage fluid.
HIV peptide-specific vaginal lavage endpoint reciprocal endpoint IgG and IgA antibody titers were measured from pooled serum (n=5 Balb/c) 15 days after secondary immunization. […] Aqueous MPL™ was delivered at 50 μg per dose. Recombinant murine IL-12 was delivered at 40 ng/mouse. Recombinant murine GM-CSF was delivered at 10 μg/mouse.
Vaginal IgG and IgA anti-peptide antibody titers were measured from lavage 41 days after initial immunization, 13 days after secondary immunization.

spleen cells [2] = assay type: cell-based, Balb/c mice; conditions: for Spleen cell proliferation index normalized to ConA, Con A 5 μg/ml / Spleen cell proliferation index normalized to ConA, HIV Peptide 1.1 μg/ml / Spleen cell proliferation index normalized to ConA, HIV Peptide 3.3 μg/ml / Spleen cell proliferation index normalized to ConA, HIV Peptide 10 μg/ml / Spleen cell proliferation index normalized to ConA, Lysozyme 10 μg/ml: Experiment 2, 96 hours culture; for Spleen cell proliferation index normalized to ConA, HIV Peptide 1.1 μg/ml / Spleen cell proliferation index normalized to ConA, HIV Peptide 3.3 μg/ml / Spleen cell proliferation index normalized to ConA, HIV Peptide 10 μg/ml / Spleen cell proliferation index normalized to ConA, Lysozyme 10 μg/ml: values in parentheses are less than unstimulated cells; for Spleen cell proliferation, Con A 1 μg/ml / Spleen cell proliferation, HIV Peptide 1.1 μg/ml / Spleen cell proliferation, HIV Peptide 3.3 μg/ml / Spleen cell proliferation, HIV Peptide 10 μg/ml: Experiment 1, immunized days 0 and 28, culture day 56, 96 hours
Procedure: (§1) For proliferation assays and in vitro cytokine analysis, spleen cells were obtained from mice at the indicated time points. Single cell suspensions were prepared from pools of 3-5 mice as indicated in Results. For proliferation and cytokine analysis, cells were suspended in round bottom 96 well culture plates precoated overnight with HIV peptide antigens, control proteins, or RPMI-10 only. Spleen cells were added at 5×10^5 cells/well using culture medium having 2× supplements. Cell culture supernatants were harvested from triplicate wells for cytokine analysis three or six days after culture initiation. Immediately after supernatant harvest, cultures were pulsed with ^3H-thymidine for 18-24 hours, and harvested to quantify cell proliferation.
Groups of five Balb/c female mice were immunized with 25 μg T1SP10MN(A) (−Cys) and the indicated adjuvants on days 0 and 28. Spleen cells were established in culture on day 56, and harvested for measurement of ^3H-thymidine incorporation 96 hours later. Mice were immunized with 50 ng IL-12, […], 50 μg MPL™ in an aqueous formulation, or as a stable emulsion with 2% SE. Data are presented as the delta cpm values as compared to proliferation values measured from cells grown in culture without stimulation.
Cells were cultured for a total of 96 hours. ^3H-thymidine was added to cultures for the last 18 hours. Data are presented as a proliferation index normalized to cells stimulated in culture with ConA ([mean cpm Antigen/mean cpm ConA]−[mean cpm medium/mean cpm ConA])×100. As a result, cells cultured in medium have a background proliferation of 0. Proliferation values less than cells grown in culture unstimulated are in parentheses.

spleen cells [3] = assay: Secretion of interferon-gamma by spleen cells (ELISA); assay type: cell-based, Balb/c mice; conditions: for Secretion of Interferon-gamma, Con A 5 μg/ml / Secretion of Interferon-gamma, HIV Peptide 1.1 μg/ml / Secretion of Interferon-gamma, HIV Peptide 3.3 μg/ml / Secretion of Interferon-gamma, HIV Peptide 10 μg/ml: Experiment 2, 96 hours culture, after subtraction of lysozyme value; for Secretion of Interferon-gamma, HIV Peptide 1.1 μg/ml / Secretion of Interferon-gamma, HIV Peptide 3.3 μg/ml / Secretion of Interferon-gamma, HIV Peptide 10 μg/ml: bd = below limit of detection; for Secretion of Interferon-gamma, Con A 1 μg/ml: Experiment 1
Procedure: as §1
For cytokine analysis, cell culture supernatants were added to wells coated with BVD6-11B11 (for anti-IL4), or R4-6A2 (for interferon-gamma). After incubation and washing, wells were developed using biotin-labeled BVD6-24G2 (for IL4) or XMG 1.2 (for interferon-gamma). The concentration of cytokines was determined using a standard curve prepared from recombinant murine interferon-gamma or interleukin-4. All cytokine reagents were purchased from Pharmingen (San Diego, Calif.).
Interferon-gamma secreted into culture by spleen cells stimulated with 25 μg T1SP10MN(A) (−Cys). Spleen cells were harvested from pools of five Balb/c female mice and cultured with the indicated antigenic stimuli (the same as in Example 6) for either three or six days. Interferon-gamma levels were determined by ELISA, and compared to a standard having a known concentration. Blank wells indicate that the assay could not detect Interferon-gamma from those culture conditions. The lower limit of detection sensitivity was 4 picograms/ml.
Cells were cultured for a total of 96 hours. Cell culture supernatants were analyzed for interferon-gamma by ELISA. All values were after subtraction from those determined from supernatants of cells stimulated with 10 μg of lysozyme. Results which were below the limit of detection, after subtraction from stimulation induced with lysozyme are indicated as “bd”. The adjuvants were the same as those in Example 12.

T1SP10MN(A) (−Cys) [4] = conditions: Experiment 3, 14 days after second immunization; for Reciprocal anti-HIV peptide IgG (GMT) endpoint titer: individual Swiss-Webster mice; for Reciprocal anti-HIV peptide IgG1 (pool) endpoint titer / Reciprocal anti-HIV peptide IgG2a (pool) endpoint titer: pooled serum Swiss-Webster
Procedure: (§2) The protocols of Experiment 2 were followed, with Swiss-Webster mice used instead of Balb/c mice. Only reciprocal anti-peptide IgG endpoint titers and vaginal lavage endpoint reciprocal endpoint IgG and IgA antibody titers were measured in this experiment.
Reciprocal anti-T1SP10MN(A) (−Cys) IgG endpoint titers were measured from geometric means from individual Swiss-Webster mice (GMT), obtained 14 days after the second immunization. IgG1 and IgG2a subclass endpoint titers were also measured from pooled serum. For recipients of Freund's adjuvants, mice were primed with peptide emulsified in CFA, and boosted with IFA. […] Aqueous MPL™ was delivered at 50 μg per dose. Recombinant murine IL-12 was delivered at 40 ng/mouse. Recombinant murine GM-CSF was delivered at 10 μg/mouse.

T1SP10MN(A) (−Cys) [5] = conditions: Experiment 3; pooled, n=5 Swiss-Webster; 15 days after secondary immunization
Procedure: as §2
Aqueous MPL™ was delivered at 50 μg per dose. Recombinant murine IL-12 was delivered at 40 ng/mouse. Recombinant murine GM-CSF was delivered at 10 μg/mouse.

[6] = Experiment 4, Balb/c, day 41, 13 days after secondary immunization
[7] = Experiment 1, pooled lavage, 5 Balb/c, immunized days 0, 28, 42, 2 weeks after final immunization
[8] = Three Day Cultures, detection limit 4 picograms/ml

| Molecule | Vaginal lavage reciprocal anti-T1SP10MN(A) (−Cys) IgA endpoint titer (T1SP10MN(A) (−Cys) [1]) | Vaginal lavage reciprocal anti-T1SP10MN(A) (−Cys) IgG endpoint titer (T1SP10MN(A) (−Cys) [1]) | Vaginal lavage IgA anti-T1SP10MN(A) (−Cys) antibody titer (T1SP10MN(A) (−Cys) [1]; [6]) | Vaginal lavage IgG anti-T1SP10MN(A) (−Cys) antibody titer (T1SP10MN(A) (−Cys) [1]; [6]) | Spleen cell proliferation index normalized to ConA, Con A 5 μg/ml (spleen cells [2]) | Spleen cell proliferation index normalized to ConA, HIV Peptide 1.1 μg/ml (spleen cells [2]) | Spleen cell proliferation index normalized to ConA, HIV Peptide 3.3 μg/ml (spleen cells [2]) | Spleen cell proliferation index normalized to ConA, HIV Peptide 10 μg/ml (spleen cells [2]) | Spleen cell proliferation index normalized to ConA, Lysozyme 10 μg/ml (spleen cells [2]) | Secretion of Interferon-gamma, Con A 5 μg/ml (spleen cells [3]) | Secretion of Interferon-gamma, HIV Peptide 1.1 μg/ml (spleen cells [3]) | Secretion of Interferon-gamma, HIV Peptide 3.3 μg/ml (spleen cells [3]) | Secretion of Interferon-gamma, HIV Peptide 10 μg/ml (spleen cells [3]) | Reciprocal anti-HIV peptide IgG (GMT) endpoint titer (T1SP10MN(A) (−Cys) [4]) | Reciprocal anti-HIV peptide IgG1 (pool) endpoint titer (T1SP10MN(A) (−Cys) [4]) | Reciprocal anti-HIV peptide IgG2a (pool) endpoint titer (T1SP10MN(A) (−Cys) [4]) | Vaginal lavage reciprocal anti-HIV peptide IgA endpoint titer (T1SP10MN(A) (−Cys) [5]) | Vaginal lavage reciprocal anti-HIV peptide IgG endpoint titer (T1SP10MN(A) (−Cys) [5]) | Vaginal lavage IgA anti-T1SP10MN(A) (−Cys) antibody titer (T1SP10MN(A) (−Cys) [1]; [7]) | Vaginal lavage IgG anti-T1SP10MN(A) (−Cys) antibody titer (T1SP10MN(A) (−Cys) [1]; [7]) | also measured |
| --- | --- | --- | --- | --- | --- | --- | --- | --- | --- | --- | --- | --- | --- | --- | --- | --- | --- | --- | --- | --- | --- |
| 3-O-deacylated monophosphoryl lipid A [MPL ™] | <10 | <10 | <10 | 12 | 99.2 | 0.5 | 1.4 | 1.0 | 0.4 | 203 units/ml | bd | bd | 5 units/ml | 1,960 | <1000 | <1000 | <10 | <10 | – | – | – |
| rIL-12: Recombinantly expressed murine IL-12 (Genetics Institute) (protein, UniProt P43431 23-215; P43432 23-335, looked up) Interleukin-12 subunit alpha: RVIPVSGPARCLSQSRNLLKTTDDMVKTAREKLKHYSCTAEDIDHEDITRDQTSTLKTCLPLELHKNESCLATRETSSTTRGSCLPPQKTSLMMTLCLGSIYEDLKMYQTEFQAINAALQNHNHQQIILDKGMLVAIDELMQSLNHNGETLRQKPPVGEADPYRVKMKLCILLHAFSTRVVTINRVMGYLSSA Interleukin-12 subunit beta: MWELEKDVYVVEVDWTPDAPGETVNLTCDTPEEDDITWTSDQRHGVIGSGKTLTITVKEFLDAGQYTCHKGGETLSHSHLLLHKKENGIWSTEILKNFKNKTFLKCEAPNYSGRFTCSWLVQRNMDLKFNIKSSSSSPDSRAVTCGMASLSAEKVTLDQRDYEKYSVSCQEDVTCPTAEETLPIELALEARQQNKYENYSTSFFIRDIIKPDPPKNLQMKPLKNSQVEVSWEYPDSWSTPHSYFSLKFFVRIQRKKEKMKETEEGCNQKGAFLVEKTSTEVQCKGGNVCVQAQDRYYNSSCSKWACVPCRVRS | <10 | <10 | <10 | <10 | 99.1 | 0.5 | 0.2 | 0.2 | 0.2 | 179 units/ml | 41 units/ml | 2 units/ml | 4 units/ml | 500 | <1000 | <1000 | <10 | <10 | <20 | <20 | Spleen cell proliferation, Con A 1 μg/ml (spleen cells [2]): 42,612 delta cpm; Spleen cell proliferation, HIV Peptide 1.1 μg/ml (spleen cells [2]): 308 delta cpm; Spleen cell proliferation, HIV Peptide 3.3 μg/ml (spleen cells [2]): 692 delta cpm; Spleen cell proliferation, HIV Peptide 10 μg/ml (spleen cells [2]): 809 delta cpm; Secretion of Interferon-gamma, Con A 1 μg/ml (spleen cells [3]; Six Day Cultures): 8.4 picograms/ml; Secretion of Interferon-gamma, Con A 1 μg/ml (spleen cells [3]; [8]): 5.9 picograms/ml |
| GM-CSF: Recombinant murine granulocyte macrophage colony stimulating factor (protein, UniProt P01587 18-141, looked up) Granulocyte-macrophage …: APTRSPITVTRPWKHVEAIKEALNLLDDMPVTLNEEVEVVSNEFSFKKLTCVQTRLKIFEQGLRGNFTKLKGALNMTASYYQTYCPPTPETDCETQVTTYADFIDSLKTFLTDIPFECKKPGQK | <10 | 26 | <10 | <10 | 99.0 | 1.6 | 2.7 | 6.8 | 0.1 | 167 units/ml | 4 units/ml | 3 units/ml | 2 units/ml | 500 | <1000 | <1000 | <10 | <10 | <20 | <20 | Spleen cell proliferation, Con A 1 μg/ml (spleen cells [2]): 55,578 delta cpm; Spleen cell proliferation, HIV Peptide 1.1 μg/ml (spleen cells [2]): 14,249 delta cpm; Spleen cell proliferation, HIV Peptide 3.3 μg/ml (spleen cells [2]): 19,784 delta cpm; Spleen cell proliferation, HIV Peptide 10 μg/ml (spleen cells [2]): 25,821 delta cpm; Secretion of Interferon-gamma, Con A 1 μg/ml (spleen cells [3]; Six Day Cultures): 7.3 picograms/ml; Secretion of Interferon-gamma, Con A 1 μg/ml (spleen cells [3]; [8]): 17.6 picograms/ml |
